Kd, koff and kon data for 2 molecules are collected here from patent US20250122292A1 (DOMA BIOPHARMACEUTICAL SUZHOU, published 2025).

Holding throughout (assay): SPR (Biacore 8K, Protein A chip; His-tagged antigen as analyte; 1:1 Langmuir fit)
For orientation: Surface plasmon resonance follows binding to a sensor surface in real time, without labels.

Test [1] addresses fasEGFR-His (ACROBiosystems Inc., Cat #: EGR-C52H5) (monkey). An excerpt: (§1) Dissociation was monitored for 400 seconds.
Test [2] addresses T1, hEGFR-His (ACROBiosystems Inc., Cat #: EGR-H5222) (human, UniProt P00533 25-645).
T1 construct: Bought reagent; also called human EGFR; not shown: His tag
Description: as §1

Test [3] has as its target T2, hMET-His (ACROBiosystems Inc., Cat #: MET-H5227) (human, UniProt P08581 25-932).
T2 construct: Bought reagent; also called human MET; not shown: His tag
Description: as §1

T2 sequence (P08581 25-932 limits assumed): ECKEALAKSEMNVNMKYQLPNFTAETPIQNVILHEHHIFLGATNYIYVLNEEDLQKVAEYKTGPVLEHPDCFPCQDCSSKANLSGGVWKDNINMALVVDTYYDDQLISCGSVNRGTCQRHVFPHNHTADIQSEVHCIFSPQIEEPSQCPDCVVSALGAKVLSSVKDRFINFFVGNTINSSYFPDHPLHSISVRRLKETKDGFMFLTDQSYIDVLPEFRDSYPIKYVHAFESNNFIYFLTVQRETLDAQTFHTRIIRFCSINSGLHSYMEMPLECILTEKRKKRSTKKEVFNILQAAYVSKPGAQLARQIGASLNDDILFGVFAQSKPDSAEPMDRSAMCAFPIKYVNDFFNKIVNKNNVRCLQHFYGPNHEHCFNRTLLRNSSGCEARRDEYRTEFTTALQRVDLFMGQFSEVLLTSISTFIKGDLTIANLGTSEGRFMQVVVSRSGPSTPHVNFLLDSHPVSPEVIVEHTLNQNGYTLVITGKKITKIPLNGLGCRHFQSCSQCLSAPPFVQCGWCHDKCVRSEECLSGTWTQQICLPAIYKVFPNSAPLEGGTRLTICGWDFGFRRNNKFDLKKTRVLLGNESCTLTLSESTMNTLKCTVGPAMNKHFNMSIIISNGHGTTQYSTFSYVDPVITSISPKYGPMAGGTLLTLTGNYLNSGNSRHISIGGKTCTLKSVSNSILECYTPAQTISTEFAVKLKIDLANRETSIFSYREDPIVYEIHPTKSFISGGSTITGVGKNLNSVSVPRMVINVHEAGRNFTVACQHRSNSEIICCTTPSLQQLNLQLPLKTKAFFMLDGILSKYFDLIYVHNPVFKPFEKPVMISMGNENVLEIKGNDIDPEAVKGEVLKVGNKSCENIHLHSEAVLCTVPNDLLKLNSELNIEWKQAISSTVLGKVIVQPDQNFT

B1: E-6C4 (antibody, V domains shown)
VH: QVQLQQWGPGLVKPSQTLSLTCTVSGGSINSGDYYWSWIRQPPGKGLESIGYIYYSGSTYYNPSLKSRVTISADTSKNQFSLKLTSVTAADTAVYYCARERVYSSSLDYWGQGTLVTVSS
VL: not shown
notes: Anti-EGFR human monoclonal antibody from RenLite mice with the common light chain
With B1, in test [1], the Kd – broadly, the constant that tells how readily two partners part at equilibrium – is 158 nM.

B2: E-6C4-M-2F11 (bispecific antibody, human IgG1, kappa)
heavy 1: not shown
heavy 2: EVQLVESGPGLVKPSETLSLTCTVSGGSISSNYWSWIRQPPGKGLEWIGYIYHSGSTNYNPSLKSRVTISVDTSKNQFSLKLSSVTAADTAVYFCARGPVSIFGVVKYIDLWGRGTLVTVSSASTKGPSVFPLAPSSKSTSGGTAALGCLVKDYFPEPVTVSWNSGALTSGVHTFPAVLQSSGLYSLSSVVTVPSSSLGTQTYICNVNHKPSNTKVDKKVEPKSCDKTHTCPPCPAPELLGGPSVFLFPPKPKDTLMISRTPEVTCVVVDVSHEDPEVKFNWYVDGVEVHNAKTKPREEQYNSTYRVVSVLTVLHQDWLNGKEYKCKVSNKALPAPIEKTISKAKGQPREPQVCTLPPSREEMTKNQVSLSCAVKGFYPSDIAVEWESNGQPENNYKTTPPVLDSDGSFFLVSKLTVDKSRWQQGNVFSCSVMHEALHNHYTQKSLSLSPGK
light: not shown
notes: 1+1 knobs-into-holes bispecific with common light chain; also called anti-EGFR/MET bispecific antibody E-6C4-M-2F11
Consider B2, for which, in test [2], binding was characterised by a dissociation constant (Kd) of 70.7 nM; the off-rate (koff) (usually the first-order rate constant of dissociation) came out at 0.0215 s⁻¹; the kon – broadly, the rate constant with which the complex forms – amounted to 304000 M⁻¹ s⁻¹. In test [3], this molecule came in with a dissociation constant Kd of 50.5 nM, a dissociation rate constant (koff) of 0.00187 s⁻¹ and an on-rate constant (kon) of 37000 M⁻¹ s⁻¹. In test [1], the Kd was 115 nM, the koff worked out at 0.0198 s⁻¹ and the kon was found to be 172000 M⁻¹ s⁻¹.
